Test results published in article PMC7884072, “Development of antibody-dependent cell cytotoxicity function in HIV-1 antibodies” (eLife, 2021).

Columns and labels:
Conditions in all cases: both partners purified
[1] = target: T1, gp120 (HIV strain BL035.W6M.C1) (HIV-1 strain BL035.W6M.C1); experiment: BLI; 157-lineage naive antibodies as ligand; monomeric BL035 gp120 as analyte at 250 nM; without the double reference approach
T1 construct: gp120, the surface subunit cut from HIV-1 Env gp160, strain BL035.W6M.C1 (clade A); Called monomeric in the legends; also called monomeric BL035.W6M.C1 gp120; monomeric gp120; source: bought: Immune Technology Corp

[2] = target: T2, gp41 ectodomain (HIV strain C.ZA.1197MB) (HIV-1 strain C.ZA.1197MB); experiment: BLI; Octet RED; mAb (8 µg/mL) captured on anti-human IgG Fc biosensors (ligand); monomeric gp41 ectodomain or gp120 as analyte in a series of up to six two-fold dilutions; 30°C; 1X PBS, 0.1% BSA, 0.005% Tween-20, 0.02% sodium azide; association 180 s, dissociation 180 s; double referencing; 1:1 model
T2 construct: gp41 ectodomain of HIV-1 Env, strain C.ZA.1197MB (clade C); Called monomeric in the legends; also called monomeric C.ZA.1197MB gp41 ectodomain; clade C gp41 ectodomain; source: bought: Immune Technology Corp
T2 chain: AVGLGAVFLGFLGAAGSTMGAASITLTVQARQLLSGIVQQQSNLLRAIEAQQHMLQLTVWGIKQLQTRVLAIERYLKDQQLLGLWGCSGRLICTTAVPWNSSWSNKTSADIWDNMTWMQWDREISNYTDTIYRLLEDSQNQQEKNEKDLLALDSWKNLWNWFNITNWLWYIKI

[3] = target: T1, gp120 (HIV strain BL035.W6M.C1); experiment: BLI; mAb lineage members captured on anti-human IgG Fc biosensors (ligand); monomeric gp41 ectodomain or BL035.W6M.C1 gp120 as analyte at 62.5 nM

B1: 157-0VHAVK (antibody, V domains shown)
VH: QVQLVQSGAEVKKPGSSVKVSCKASGGTFSSYAISWVRQAPGQGLEWMGGIIPILGIANYAQKFQGRVTITADESTSTAYMELSSLRSEDTAVYYCARGKVSSSDWFQPIYYYYMDVWGGGTTVTVSS
VL: EIVMTQSPATLSVSPGERATLSCRASQSISSYLAWYQQKPGQAPRLLIYDASNRATGIPARFSGSGSGTDFTLTISSLEPEDFAVYYCQQRSNSLPFGQGTRLEIK
notes: Whole human IgG1, kappa; source: HEK 293F, co-transfected, purified (protein G)
binding result [1]: no binding (tested: 250 nM)

B2: 072-0VH0VK (antibody, V domains shown)
VH: QVQLVQSGAEVKKPGSSVKVSCKASGGTFSSYAISWVRQAPGQGLEWMGGIIPILGIANYAQKFQGRVTITADESTSTAYMELSSLRSEDTAVYYCARHYDDSSGFFYGAFDIWGQGTTLTVSS
VL: DIQMTQSPSSLSASVGDRVTITCRASQGISNYLAWYQQKPGKVPKLLIYAASTLQSGVPSRFSGSGSGTDFTLTISSLQPEDVATYYCQKYNSAPWTFGQGTKVEIK
notes: 072-0VH, inferred naive heavy chain variable region (VH 1-69*11, DH 4-17*01, JH 3*02); 072-0VK, inferred naive kappa variable region (VK 1-27*01, JK 1*01); Whole human IgG1, kappa (Igγ1 vector Addgene 80795, Igκ vector Addgene 80796); also called 072 lineage inferred naive mAb; inferred naive precursor of the 072 lineage; source: HEK 293F, co-transfected, purified (protein G)
Kd [2]: 34.4 nM

B3: 105-1VH1VK (antibody, V domains shown)
VH: EVQLVESGGGLVKPGGSLRLSCAASGFSFTNAYMSWVRQAPGKGLEWVGRIKSKADDGTTDYAAPVKGRFTISRDDSKNTLYLQMNSLKTEDTAVYYCTTGVMIANQDSYYYMDVWGKGTTVAVSS
VL: not shown
notes: as for B1
binding result [3]: binds
